Earlier results on two substances are cited in PMC5321513.

For orientation: Kd means the concentration at which binding is half-saturated.

The target in one data set is 14-3-3ζ (Homo sapiens) (UniProt P63104).
The target in another data set is 14-3-3σ (Homo sapiens) (UniProt P31947).
Chain of 14-3-3σ (Homo sapiens) (P31947 whole entry): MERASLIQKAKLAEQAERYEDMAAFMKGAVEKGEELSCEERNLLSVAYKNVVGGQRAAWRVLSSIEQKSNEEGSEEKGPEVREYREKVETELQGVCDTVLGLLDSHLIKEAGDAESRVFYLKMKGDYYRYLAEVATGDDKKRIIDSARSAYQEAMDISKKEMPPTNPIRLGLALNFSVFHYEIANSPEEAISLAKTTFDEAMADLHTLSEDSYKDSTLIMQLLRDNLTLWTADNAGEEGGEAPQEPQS

Chain of 14-3-3ζ (Homo sapiens) (P63104 whole entry): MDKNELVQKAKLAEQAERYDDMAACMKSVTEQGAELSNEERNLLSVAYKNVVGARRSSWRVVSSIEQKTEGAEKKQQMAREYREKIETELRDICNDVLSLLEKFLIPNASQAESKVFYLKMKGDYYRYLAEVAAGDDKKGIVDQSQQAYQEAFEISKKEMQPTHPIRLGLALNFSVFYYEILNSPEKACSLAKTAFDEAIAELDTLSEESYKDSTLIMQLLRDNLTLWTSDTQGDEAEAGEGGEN

Consider “C-RAF phosphopeptide (from UniProt P04049)”, for which the Kd in the data set with 14-3-3ζ (Homo sapiens) was 16.7 µM.
For “p53 phosphopeptide (from UniProt P04637)”, the dissociation constant (Kd) with 14-3-3σ (Homo sapiens) was 16.3 µM.
